Experimental data reported in patent US8034786B2, “Methods and means for controlling the endocytosis and subsequent degradation of growth hormone receptor” (Recharge B.V., priority 2005, dated 2011).
Blank lines part the entries; values can stand above or below the molecule they belong to.

Legend:
[1] = molecular target: GHR constructs with one of seven amino acids of the UbE motif (indicated as underlined in …) mutated to alanine; assay: pull-down of 35S-labelled β-TrCP on GH-GHR beads, background (GHR 1-286) subtracted
GHR and β-TrCP = assay: Inhibition of the interaction between GHR and β-TrCP; type: binding

inhibition of binding as compared to wtGHR [1]: > 60%
Molecule: in vitro-translated- and 35S-labelled-TrCP2

inhibition of F-box protein (β-TrCP) interaction with ubiquitin/proteasome binding site of GHR (GHR and β-TrCP): capable of providing inhibition
B1: KQQRIKMLILPPVPVPKIKGIDPDLLKEGKLEEVNTILAIHDSYKPEFHSDDS WVEFIELD (peptide)
chain: KQQRIKMLILPPVPVPKIKGIDPDLLKEGKLEEVNTILAIHDSYKPEFHSDDSWVEFIELD
notes: 61 amino acid peptide of GHR, residues 270-331
